These results are taken from patent US20220251562, “Anti-CD3 Aptamers for Use in Cell Targeting and Labeling” (Ixaka France, published 2022).

The target of data set [1] is T1, CD3 epsilon/gamma heterodimer (Homo sapiens, UniProt P07766;P09693 P07766:23-126,P09693:23-116). In words: SPR; steady state; kinetic fits 5 nM (Table 3), 5.2 nM (Table 6), 119 pM (Table 8), 156 nM steady state (Table 9); SELEX buffer Mg Ca. To be noted: tags: C-terminal human IgG1 Fc fusion, AcroBiosystems; chain copies: heterodimer 1:1 (inferred); label: 5'-biotin-TEG. As to the method: (§1) Binding affinity measurements were performed using a BIAcore T200 instrument (GE Healthcare). To analyze interactions between aptamers and CD3 proteins, 1000 Resonance Units of biotinylated aptamers were immobilized on Series S Sensor chips SA (GE Healthcare) according to manufacturer's instructions (GE Healthcare). SELEX buffer was used as the running buffer. The interactions were measured in the “Single Kinetics Cycle” mode at a flow rate of 30 μl/min and by injecting different concentrations of human CD3 ε/γ, CD3 ε/δ, IgG1 Fc and mouse CD3 ε/δ (Sino Biological). The highest protein concentration used was 100 nM. Other concentrations were obtained by 3-fold dilution. All kinetic data of the interaction were evaluated using the BIAcore T200 evaluation software. Table 3 below provides a summary of KD values obtained from surface plasmon resonance measurements.
(Surface plasmon resonance follows binding to a sensor surface in real time, without labels.)

In data set [2] the target is T2, CD3 epsilon/delta heterodimer (Homo sapiens, UniProt P07766;P04234 P07766:23-126,P04234:22-105). In words: SPR; steady state; kinetic 3.7 nM (Table 3), 9.9 nM (Table 6), 217 pM (Table 8). To be noted: tags: C-terminal human IgG1 Fc fusion, AcroBiosystems; chain copies: heterodimer 1:1 (inferred); label: 5'-biotin-TEG. How it is done: as §1
Data set [3] addresses T3, IgG1 Fc (counter target) (Homo sapiens, UniProt P01857-1 P01857-1:100-330). As to the kind of experiment: SPR; NA, no interaction; Table 3 prints 56.3 mM. As to conditions: tags: AcroBiosystems; chain copies: 2; label: 5'-biotin-TEG. As to the method:
as §1

Data set [4] concerns the target T1, CD3 epsilon/gamma heterodimer. In words: SPR; steady state; kinetic 65.2 nM (Table 6). As to conditions: tags: C-terminal human IgG1 Fc fusion, AcroBiosystems; chain copies: heterodimer 1:1 (inferred); label: 5'-biotin-TEG. How it is done: as §1
In data set [5] the target is T2, CD3 epsilon/delta heterodimer. In words: SPR; steady state; kinetic 3.2 uM (Table 6). As to conditions: tags: C-terminal human IgG1 Fc fusion, AcroBiosystems; chain copies: heterodimer 1:1 (inferred); label: 5'-biotin-TEG. As to the method:
as §1

Data set [6] addresses T3, IgG1 Fc (counter target). In words: SPR; no interaction observed. To be noted: tags: AcroBiosystems; chain copies: 2; label: 5'-biotin-TEG. How it is done: as §1
For data set [7], the target named is T3, IgG1 Fc (counter target). As to the kind of experiment: SPR; no interaction observed; printed CELTIC_CD3_22. To be noted: tags: AcroBiosystems; chain copies: 2; label: 5'-biotin-TEG. How it is done:
as §1

Data set [8] addresses T1, CD3 epsilon/gamma heterodimer. In words: SPR; kinetic, DPBS. As to conditions: tags: C-terminal human IgG1 Fc fusion, AcroBiosystems; chain copies: heterodimer 1:1 (inferred); label: 5'-biotin-TEG. How it is done: as §1
(§2) Binding of anti-CD3 RNA aptamers to each of purified recombinant human CD3 ε/γ and CD3 ε/δ proteins was measured using surface plasmon resonance. Binding studies were performed generally as described in Example 5 except that SELEX buffer was replaced by DPBS. The highest protein concentration used was 300 nM. Other concentrations were obtained by 3-fold dilution. Binding to hIgG1 Fc was used as control. Binding to murine CD3 do (mCD3 c/S) was also measured.

Data set [9] addresses T3, IgG1 Fc (counter target). In words: SPR; NA, DPBS. As to conditions: tags: AcroBiosystems; chain copies: 2; label: 5'-biotin-TEG. As to the method:
as §1, §2

The target of data set [10] is T2, CD3 epsilon/delta heterodimer. In words: SPR; NA, DPBS. To be noted: tags: C-terminal human IgG1 Fc fusion, AcroBiosystems; chain copies: heterodimer 1:1 (inferred); label: 5'-biotin-TEG. How it is done:
as §1, §2

For data set [11], the target named is T1, CD3 epsilon/gamma heterodimer. As to the kind of experiment: SPR; steady state; kinetic 104 pM (Table 8). To be noted: tags: C-terminal human IgG1 Fc fusion, AcroBiosystems; chain copies: heterodimer 1:1 (inferred); label: biotin; G4 predicted. As to the method:
(§3) Binding affinity measurements with the most interesting anti-CD3 aptamers derived from the core sequence were performed using a BIAcore T200 instrument (GE Healthcare) as already described in Example 4. To analyze interactions between aptamers and CD3 proteins, biotinylated aptamers were immobilized at a lower density than in Example 4 (100-500 RU) on Series S Sensor chips SA (GE Healthcare) according to manufacturer's instructions (GE Healthcare). Mouse and Cynomolgus CD3 ε/δ were purchased from AcroBiosystems. For human proteins, the highest concentration used was 100 nM and 1 μM for mouse and cynomolgus antigens. Other concentrations were obtained by 3-fold dilutions.
Table 9 below provides a summary of KD values obtained from surface plasmon resonance measurements performed with human CD3 ε/γ and mouse and cynomolgus CD3 ε/δ. […] In these conditions, 3′-3′ deoxy-thymidine-modified versions of the latest four aptamers performed equally well. All these sequenced-optimized aptamers were able to bind the murine and cynomolgus CD3 ε/δ isoforms confirming the cross-specificity of the CD3 aptamers already observed in Examples 3 and 5.

The target of data set [12] is T2, CD3 epsilon/delta heterodimer. In words: SPR; kinetic. To be noted: tags: C-terminal human IgG1 Fc fusion, AcroBiosystems; chain copies: heterodimer 1:1 (inferred); label: biotin; G4 predicted. How it is done: as §3
(§4) Table 8 below provides a summary of KD values obtained from surface plasmon resonance measurements. […] Variants of the core sequence identified in cell binding assays (CELTIC_core_12, CELTIC_core_24, CELTIC_core_29, CELTIC_core_40 and CELTIC_core_42) were all confirmed to have better affinities than the unmodified aptamer with human CD3 ε/γ. As already observed in Example 4, the affinities were in general slightly lower with CD3 ε/δ which is a consequence of the SELEX strategy that included more rounds on the CD3 ε/γ isoform. None of these sequences did bind to the Fc region of human IgG1.

Data set [13] addresses T3, IgG1 Fc (counter target). As to the kind of experiment: SPR; no interaction observed. As to conditions: tags: AcroBiosystems; chain copies: 2; label: 5'-biotin-TEG. As to the method:
as §3, §4
This is another data set of the same source.

T1 sequence (P07766 23-126, chain 1 of 2): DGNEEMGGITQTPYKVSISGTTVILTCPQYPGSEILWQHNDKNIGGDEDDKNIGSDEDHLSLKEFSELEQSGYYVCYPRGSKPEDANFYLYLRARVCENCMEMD
T1 sequence (P09693 23-116, chain 2 of 2): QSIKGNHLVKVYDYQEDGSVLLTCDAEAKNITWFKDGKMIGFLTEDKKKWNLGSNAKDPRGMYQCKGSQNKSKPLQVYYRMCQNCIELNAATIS
T2 sequence (P07766 23-126, stated change not applied, chain 1 of 2): as the sequence (P07766 23-126, chain 1 of 2) above
T2 sequence (P04234 22-105, stated change not applied, chain 2 of 2): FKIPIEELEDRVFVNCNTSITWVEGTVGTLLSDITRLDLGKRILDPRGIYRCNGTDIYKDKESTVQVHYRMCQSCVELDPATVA

Usually Kd stands for the free concentration of one partner at which half of the binding sites on the other are occupied at equilibrium, for simple one-to-one binding. In the case of TTTCCGGGTGGGGGTTTGGCACCGGGCCTGGCGCAGGGATTCG (ssDNA) [CELTIC_1s], the figures for the Kd in data set [1] and in data set [2] were 53 nM and 125 nM, respectively. Moreover, the binding result in data set [3] was “no binding”.
Turning to GAGGGGTTTGGCATCGGGCCTGGCGCCATTCAAGCTATGC (ssDNA) [CELTIC_2s], the Kd worked out at 627 nM in [4] and 260 nM in data set [5]. Further, the binding result in [6] is given as “no binding”.
On to CGACCACAGGGGTTTGGCTTCGGGACTGGCGGTGGGCACT (ssDNA) [CELTIC_22s], for which the binding result in [7] is on record as “no binding”.
In [8], GAUGAUAUCUUUAAUAUCAAUUGCAGCGAUUCUUGUUUGAGAAUAAAC (ssRNA, 2'-F pyrimidines) [ARACD3-3130001] returned a Kd of 332 nM. For the same molecule, the binding result in data set [9] and in data set [10] was “no binding” in each case.
Turning to GGGTTTGGCATCGGGTCTGGC (ssDNA, 5'-HEG; 3'-3' dT), the Kd in data set [11] was 156 nM; in data set [12] it was 0.01 nM.
For GGGTTTGGCATCGGGTCTGGC (ssDNA, 5'-HEG, 3'-3' dT), in data set [13], the binding result is recorded as “no binding”.
